Laboratory results published in patent EP1977765A1, “Peptide prodrugs” (Diatos, priority 2007, dated 2008).
Where two headings read alike, the source gives them in different places.

Tests used:
[1] = system: HCT 116 colon cancer cell line; assay: In vitro cytotoxicity, WST-1 viability test; type: cell-based; conditions: mean of 3 independent experiments
Method: The cytotoxicity of different drug conjugates was evaluated using the HCT 116 colon cancer cell line and was compared to the cytotoxicity of the free drug (doxorubicin, mitomycin C or paclitaxel). Cells were seeded at 8 000 cells/well and maintained in Mc Coy medium supplemented with 10% fetal bovine serum for 24 hours before treatment. Cells were incubated with increasing concentrations of drugs or conjugates at 37°C, 5% CO2. The medium was then removed and a WST-1 test (purchased from Roche) was performed according to the manufacturer's instructions. The cytotoxicity of the tested conjugates was expressed as the molar concentration inhibiting 50% of the cell viability (IC50), calculated using Graph Pad Prism 3.02 software. Experimental data are presented as the mean of three independent experiments performed in duplicate.
Table 1: Drug concentration that inhibits 50% of cell viability (IC50) using the HCT 116 cell line. Data represent the mean value of 3 independent experiments. After the indicated exposure time at 37°C, cells were rinsed and a viability assay (WST1 test) was performed to determine IC50.

[2] = In vitro human plasma stability of drug conjugates (HPLC); type: in vitro ADME; conditions: for remaining at 6 h, 100 µM: 100 µM paclitaxel conjugates, read-out: plasma stability (% conjugate)
Method: Human plasma (citrated human blood was centrifuged at 600 g for 10 min at +4°C, plasma was recovered and aliquots stored at -20°C) was used to assess the stability of the following drug conjugates: Suc-ALAL-doxorubicin, Suc-βALAL-doxorubicin, TA-ALAL-doxorubicin, Suc-βALAL-MMC, TA-ALAL-MMC, Suc-βALAL-paclitaxel and TA-ALAL-paclitaxel. The drug conjugates (50 µM doxorubicin or MMC, 100 µM paclitaxel conjugates) were incubated at 37°C with human plasma either for 0, 2 or 6 hours, 50 µL of sample were collected at each time point and extraction was performed immediately.
For the doxorubicin conjugate and metabolites, 150 µL of acetonitrile was added to the 50 µL samples. Samples were vortexed and centrifuged for 10 min at 13 000 rpm at room temperature. 100 µL were harvested and 200 µL of 2% ammonium formate pH 4.0 were added before centrifugation (10 min at 13 000 rpm). HPLC analysis (at 560 nm) was performed using the supernatant.
For MMC conjugate and metabolites were extracted prior to HPLC analysis. 100 µL of acetonitrile was added to the 50 µL of sample, prior to vortexing (10 seconds) and centrifugation (10 min at 13 000 rpm) at room temperature. 50 µL of supernatant was recovered and mixed with 150 µL of Phosphate Buffer Saline (PBS) 1X. After centrifugation (10 min at 13 000 rpm), 150 µL of supernatant were collected for HPLC analysis. Stability and reactivation were evaluated by HPLC analysis (at 270 nm) and MMC conjugate and metabolite peak areas were compared.
For the paclitaxel conjugate and metabolites, 150 µL of acetonitrile was added to 50 µL of sample, vortexed and centrifuged for 10 min at 13 000 rpm at room temperature. 100 µL of supernatant was recovered and mixed with 100 µL of water. After centrifugation (10 min at 13 000 rpm), the supernatant was collected for HPLC analysis (at 230 nm).

[3] = In vivo toxicity of doxorubicin conjugates in LS 174T tumor-bearing nude mice (i.v.); conditions: for equitoxic dose: i.v.
Method: Toxicity studies were conducted in LS 174T tumor-bearing nude mice following intravenous administration. […] LS 174T tumors were established by a subcutaneous implantation of cells (3 x 10^7 cells injected) in the right flank of 7 weeks old female NMRI nude mice (Janvier, France). The day of the first injection, animals were randomly assigned to groups of 6 animals. The TA-ALAL-doxorubicin and Suc-ALAL-doxorubicin conjugates were dissolved in saline and Suc-βALAL-doxorubicin was prepared in glucose 5%. All conjugates were delivered by bolus intravenous injection (i.v.) in the lateral tail vein at 10 µL/g. During the course of the experiment, clinical signs and body weight were controlled at least twice a week. The experiment was repeated twice. Table 2: In vivo toxicity of TA-ALAL-doxorubicin conjugate compared to Suc-βALAL-doxorubicin and Suc-ALAL-doxorubicin in LS 174T tumor-bearing mice.

[4] = system: LS 174T tumors; assay: In vivo anti-tumoral efficacy of doxorubicin conjugates in the LS 174T tumor model; set-up: species or system NMRI nude mice
Text: (§1) Treatments were initiated when the tumors had reached a size of 100 mm^3 (calculated using the following formula: [length x width^2]/2). […] During the course of the experiment, clinical signs, body weight and tumor volume were controlled twice a week. Results are presented as the evolution of mean tumor volume as a function of time. Optimal T/C (ratio of mean tumor volume of treated versus control mice) values were used as a measure of treatment efficacy. The optimal T/C% reflects the maximal tumor growth inhibition achieved. The experiment was repeated twice.

[5] = system: LS 174T tumors; assay: In vivo anti-tumoral efficacy of mitomycin C conjugates in the LS 174T tumor model; set-up: species or system NMRI nude mice
Text: as §1
The in vivo anti-tumoral efficacy of TA-ALAL-MMC was compared to that of Suc-βALAL-MMC in the LS 174T tumor model. The establishment of the LS 174T tumors and the treatments were carried out as previously described in Example V. TA-ALAL-MMC conjugate was dissolved in saline and Suc-βALAL-MMC conjugate was prepared in 3% DMSO in Sodium phosphate buffer (15mM). […] During the course of the experiment, clinical signs, body weight and tumor volume were controlled twice a week. The experiment was repeated twice. Table 4: Anti-tumoral efficacy of TA-ALAL-MMC compared to Suc-βALAL-MMC in the LS 174T tumor model.

[6] = after 6 hours in human plasma at 37°C
[7] = Experiment 2, LS 174T tumor-bearing mice
[8] = Experiment 1, dose 67.7 µmol/kg i.v.
[9] = Experiment 1, dose 60 µmol/kg i.v.
[10] = Experiment 2, dose 80 µmol/kg i.v.
[11] = Experiment 1, dose 67.7 µmol/kg i.v., LS 174T tumor-bearing mice
[12] = Experiment 2, dose 77.4 µmol/kg i.v.
[13] = Experiment 1, dose 67.7 µmol/kg i.v., groups of 6 animals

CC(=O)O[C@H]1C(=O)[C@@]2(C)[C@H]([C@H](OC(=O)c3ccccc3)[C@]3(O)C[C@H](OC(=O)[C@H](OC(=O)C(CC(C)C)NC(=O)C(C)NC(=O)C(CC(C)C)NC(=O)C(C)NC(=O)C4C(C(=O)O)C(C(=O)O)C4C(=O)O)[C@@H](NC(=O)c4ccccc4)c4ccccc4)C(C)=C1C3(C)C)[C@]1(OC(C)=O)CO[C@@H]1C[C@@H]2O (some centres unmarked) [TA-ALAL-paclitaxel, TetraAcid-ALAL-paclitaxel]
IC50 ([1]; incubation time 4h + 72 h): 10 µM | remaining at 6 h, 100 µM [2, 6]: 43%

CC(=O)O[C@H]1C(=O)[C@@]2(C)[C@H]([C@H](OC(=O)c3ccccc3)[C@]3(O)C[C@H](OC(=O)[C@H](O)[C@@H](NC(=O)c4ccccc4)c4ccccc4)C(C)=C1C3(C)C)[C@]1(OC(C)=O)CO[C@@H]1C[C@@H]2O [paclitaxel]
IC50 ([1]; Homo sapiens, incubation time 4h + 72 h): 0.02 µM

COc1cccc2c1C(=O)c1c(O)c3c(c(O)c1C2=O)CC(O)(C(=O)CO)CC3OC1CC(NC(=O)C(CC(C)C)NC(=O)C(C)NC(=O)C(CC(C)C)NC(=O)CCNC(=O)CCC(=O)O)C(O)C(C)O1 (centres unmarked) [Suc-βALAL-dox, Suc-βALAL-doxorubicin]
IC50 ([1]; incubation time 48 h): > 10 µM | equitoxic dose [3, 7]: 47.4 µmol/kg | Maximal body weight loss % ([3]; mouse, in vivo, iv): 15.9% | remaining at 2 h, 50 µM ([2]; human, plasma): 77.2% | remaining at 6 h, 50 µM ([2]; human, plasma): 47.5% | Optimal T/C (%) [4, 8]: 52% | Optimal T/C (%) ([4]; Experiment 2, dose 47.4 µmol/kg i.v.): 52%

COc1cccc2c1C(=O)c1c(O)c3c(c(O)c1C2=O)C[C@@](O)(C(=O)CO)C[C@@H]3O[C@H]1C[C@H](N)[C@H](O)[C@H](C)O1 [doxorubicin (dox), doxorubicin]
IC50 ([1]; Homo sapiens, incubation time 48 h): 0.034 µM

Suc-βALAL-mitomycin C [Suc-βALAL-MMC]
IC50 ([1]; incubation time 24 h): 67 µM | % of conjugates remaining ([2]; after 6 hours in human plasma at 37°C, 50 µM MMC conjugates): 73% | Maximal body weight loss % [5, 9]: 14.5% | Optimal T/C (%) [5, 9]: 48% | Maximal body weight loss % [5, 10]: 15.9% | Optimal T/C (%) [5, 10]: 43%

CO[C@@]12[C@H](COC(N)=O)C3=C(C(=O)C(C)=C(N)C3=O)N1C[C@@H]1N[C@@H]12 [Mitomycin C (MMC), mitomycin C]
IC50 ([1]; incubation time 24 h): 5 µM

COc1cccc2c1C(=O)c1c(O)c3c(c(O)c1C2=O)CC(O)(C(=O)CO)CC3OC1CC(NC(=O)C(CC(C)C)NC(=O)C(C)NC(=O)C(CC(C)C)NC(=O)C(C)NC(=O)C2C(C(=O)O)C(C(=O)O)C2C(=O)O)C(O)C(C)O1 (centres unmarked) [TA-ALAL-dox, TetraAcid-ALAL-doxorubicin]
IC50 ([1]; incubation time 48 h): > 10 µM | Maximal body weight loss % [3, 11]: 13.7% | Maximal body weight loss % ([3]; Experiment 2, dose 55.1 µmol/kg i.v.): 11.3% | Maximal body weight loss % [3, 12]: 17.9% | equitoxic dose [3, 7]: 77.4 µmol/kg | remaining at 2 h, 50 µM ([2]; after 2 hours in human plasma at 37°C, 50 µM doxorubicin conjugates, read-out: percentage of intact conjugate): 83% | remaining at 6 h, 50 µM ([2]; after 6 hours in human plasma at 37°C, 50 µM doxorubicin conjugates, read-out: percentage of intact conjugate): 67% | Optimal T/C (%) [4, 8]: 42% | Optimal T/C (%) [4, 12]: 36%

COc1cccc2c1C(=O)c1c(O)c3c(c(O)c1C2=O)CC(O)(C(=O)CO)CC3OC1CC(NC(=O)C(CC(C)C)NC(=O)C(C)NC(=O)C(CC(C)C)NC(=O)C(C)NC(=O)CCC(=O)O)C(O)C(C)O1 (centres unmarked) [Suc-ALAL-dox, Suc-ALAL-doxorubicin]
IC50 ([1]; incubation time 48 h): 10 µM | Maximal body weight loss % [3, 11]: 36.1% | dead animals [3, 13]: 3 | remaining at 2 h, 50 µM ([2]; human, plasma): 80% | remaining at 6 h, 50 µM ([2]; human, plasma): 54% | animals died [4, 13]: 3 animals died

CC(=O)O[C@H]1C(=O)[C@@]2(C)[C@H]([C@H](OC(=O)c3ccccc3)[C@]3(O)C[C@H](OC(=O)[C@H](OC(=O)C(CC(C)C)NC(=O)C(C)NC(=O)C(CC(C)C)NC(=O)CCNC(=O)CCC(=O)O)[C@@H](NC(=O)c4ccccc4)c4ccccc4)C(C)=C1C3(C)C)[C@]1(OC(C)=O)CO[C@@H]1C[C@@H]2O (some centres unmarked) [Suc-βALAL-paclitaxel]
IC50 ([1]; incubation time 4h + 72 h): 0.762 µM | remaining at 6 h, 100 µM [2, 6]: 41%
